In patent CN115785273A (DONGGUAN PENGZHI BIOTECHNOLOGY CO LTD, dated 2023) one finds Kd, koff and kon data, which are given here for two molecules.

The assay has as its target T1, PG I蛋白(fitzgerald，30R-AP038) (UniProt P0DJD8 16-388).
T1 construct: Commercial antigen; Pepsinogen I is a group of isozymogens (PGA3/PGA4/PGA5); also called 胃蛋白酶原I; HPG I
The assay can be described thus: BLI, AMC sensors, antibody captured at 10 μg/mL, PG I protein in serial dilution in PBST. In general terms: Biolayer interferometry detects binding as a change in optical thickness at a sensor tip.

T1 sequence (P0DJD8 16-388): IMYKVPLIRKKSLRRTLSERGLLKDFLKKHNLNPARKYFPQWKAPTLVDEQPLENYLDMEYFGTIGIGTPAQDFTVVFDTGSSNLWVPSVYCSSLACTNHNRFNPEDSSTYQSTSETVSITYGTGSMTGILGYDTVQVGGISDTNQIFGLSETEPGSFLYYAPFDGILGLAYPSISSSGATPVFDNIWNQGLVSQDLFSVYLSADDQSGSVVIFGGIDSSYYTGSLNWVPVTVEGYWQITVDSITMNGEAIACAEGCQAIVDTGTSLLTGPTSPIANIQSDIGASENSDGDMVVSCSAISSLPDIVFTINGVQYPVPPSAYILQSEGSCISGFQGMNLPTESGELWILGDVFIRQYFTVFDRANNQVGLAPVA

For the molecule 对照抗体 (antibody), the Kd (as a rule, the free concentration of one partner at which half of the binding sites on the other are occupied at equilibrium, for simple one-to-one binding) is 297 pM; the koff (commonly the first-order rate constant of dissociation) turned out to be 0.000273 s⁻¹; the kon (as a rule, the rate constant with which the complex forms) was 919000 M⁻¹ s⁻¹.

B1: Anti-HPG I 8C20单克隆抗体 (antibody, V domains shown)
VH: QVQLQQPGAELVRPGASVKLSCKASDYTFTSYWMNWVKQRPEQGLEWIGRIDPYDSETHYNQKFKDKAILTVDKSSSTAYMQLSSLTSEDSAVYYCARFSMVVAVYAMDYWGQGTSVTVSS
VL: DIQMTQSPASLSASVGETVTITCRASGNIHNYLAWFQQKQGKSPQILVYYAKTLADGVPSRFSGSGSGTQFSLKINSLQPEDFGSYYCQHFWSTPWTFGGGTKLEIK
Molecule B1 yielded a dissociation constant Kd of 30.9 pM, a koff of 2.85e-05 s⁻¹ and a kon of 921000 M⁻¹ s⁻¹.
